Primed or numbered codes have the meaning given here. *: point of attachment. mPEG2000 = methoxypolyethylene glycol polymer of 2 kDa, conjugated at the peptide N-terminus; FITC = O=C1OC2(c3ccc(O)cc3Oc3cc(O)ccc32)c2ccc(NC(=S)*)cc21; FITC′ = fluorescein isothiocyanate label; mPEG2000(3) = 2 kDa mPEG at N-terminus; Cy5.5 = Cy5.5 fluorophore
What was measured:
[1] = tested on: MDA-MB-468 tumors; assay: In vivo fluorescence monitoring of distribution after tail vein injection, MDA-MB-468 tumors; parameters: species or system nude mice; settings: 0.5 nmol of fluorophore content, 48 hours post-injection
Method: Similar results were observed when the animals were injected with GSH-NFP nanofibers having a homogenous length of 400 nm. FIGS. 16A and 16B (white arrows).

[2] = tested on: triple-negative breast cancer MDA-MB-468 cells; assay: CellTiter-Glo luminescent cell viability (cytotoxicity) assay, MDA-MB-468; assay type: cell-based, human; settings: for IC50: 5 days of incubation, concentration according to DM1 content, mean ± SD, triplicate; for toxicity of naked nanofibers: below a concentration of 1 μM
Method: (§1) The cytotoxicity of drug-loaded NFP1 and NFP2 nanofibers was assessed using the CellTiter-Glo Luminescent Cell Viability Assay (Promega, Madison, Wis.) as previously described in Junttila et al., Breast Cancer Res. Treat. 128 (2), 347-356 (2011). Briefly, cells were seeded on a 96-well plate (2×10^3/well for MDA-MB-231 and MDA-MB-468 and 2×10^4/well for BT474) and were allowed to stabilize overnight. […] After 5 days of incubation, CellTiter-Glo reagent (100 μL) was added to each well. The generated oxyluciferin was quantified for emitted luminescence using a microplate reader (Tecan US Inc., Morrisville, N.C.). All experiments were performed in triplicate, and the results were presented as mean±standard deviation. Statistical analyses were performed using Graph Pad Prism 6.0 software. All data were normalized to the values obtained with the untreated control cells, and half maximal inhibitory concentrations (IC50) were calculated by fitting the obtained data to a sigmoidal curve.
(§2) The cytotoxicity of the DM1-loaded nanofibers was evaluated using various human HER2-positive breast cancer (BT474) and triple-negative breast cancer (MDA-MB-231 and MDA-MB-468) cell lines as ex vivo models. A luminescent cell viability assay was employed to determine the cell viability through quantification of the adenosine triphosphate (ATP) produced by metabolically active cells. This assay offered more accurate and reproducible results compared to the widely used MTS assay (data not shown). Because the cell killing of DM1 is slow, the assays were performed following the incubation of the tested samples for 5 days, as previously described in Junttila et al., Breast Cancer Res. Treat. 128 (2), 347-356 (2011).

[3] = tested on: triple-negative breast cancer MDA-MB-231 cells; assay: CellTiter-Glo luminescent cell viability (cytotoxicity) assay, MDA-MB-231; assay type: cell-based, human; settings: for IC50: 5 days of incubation, concentration according to DM1 content, mean ± SD, triplicate; for toxicity of naked nanofibers: below a concentration of 1 μM
Method: as §1, §2

[4] = tested on: HER2-positive breast cancer (BT474) cells; assay: CellTiter-Glo luminescent cell viability (cytotoxicity) assay, BT474; assay type: cell-based, human; settings: 5 days of incubation, concentration according to DM1 content, mean ± SD, triplicate
Method: Briefly, cells were seeded on a 96-well plate (2×10^3/well for MDA-MB-231 and MDA-MB-468 and 2×10^4/well for BT474) and were allowed to stabilize overnight. […] After 5 days of incubation, CellTiter-Glo reagent (100 μL) was added to each well. The generated oxyluciferin was quantified for emitted luminescence using a microplate reader (Tecan US Inc., Morrisville, N.C.). […] Statistical analyses were performed using Graph Pad Prism 6.0 software. All data were normalized to the values obtained with the untreated control cells, and half maximal inhibitory concentrations (IC50) were calculated by fitting the obtained data to a sigmoidal curve.
The cytotoxicity of the DM1-loaded nanofibers was evaluated using various human HER2-positive breast cancer (BT474) and triple-negative breast cancer (MDA-MB-231 and MDA-MB-468) cell lines as ex vivo models. A luminescent cell viability assay was employed to determine the cell viability through quantification of the adenosine triphosphate (ATP) produced by metabolically active cells. […] Because the cell killing of DM1 is slow, the assays were performed following the incubation of the tested samples for 5 days, as previously described in Junttila et al., Breast Cancer Res. Treat.

[5] = target: T1, CathB (purified from bovine spleen) (Bos taurus, UniProt P07688); assay: Enzyme digestion study with CathB (HPLC, MALDI-TOF, TEM, fluorescence); assay type: biochemical; settings: for CathB digestion, peptide fragments by HPLC: 50 μM peptide content, sodium acetate buffer pH 4, 24 hours; for CathB digestion, peptide fragments by HPLC / fluorescence change of quenched nanofibers after CathB digestion: CathB 0.3 U; for morphological change in response to CathB digestion (TEM): 24 hour incubation with the enzyme; for fluorescence change of quenched nanofibers after CathB digestion: 0.1 μM peptide content, pH 4, 24 hours
T1 construct: CathB (purified from bovine spleen); purchased EMD Millipore (Billerica, Mass.); host or cells: bovine spleen (tissue-purified)
Method: NFP1 and NFP2 nanofibers (50 μM of peptide content) were incubated with CathB (0.3 U) in sodium acetate buffer (50 μM; pH 4). Nanofibers incubated with buffer only were used as the negative controls. After 24 hours, the samples were taken out for TEM, rp-HPLC, and MALDI-TOF analysis.
Intact or digested NFP1 and NFP2 nanofibers (10 μM of peptide content) in buffer (20 μL) were transferred onto Formvar/carbon-coated 400 mesh copper grids (Electron Microscopy Sciences, Hatfield, Pa.). Excess nanofibers were blotted off using filter paper and the samples were stained with 0.5% (v/v) uranyl formate solution (20 μL). After drying at room temperature, the grids were examined under TEM (JEOL JEM-1400 LaB6 TEM operating at 120 Kv).

With Cn1cnc(N)c2ncnc1-2 [3MA] the “tumoral uptake relative to Cy5.5” value [1] was “increased tumoral uptake”.
For COc1cc2cc(c1Cl)N(C)C(=O)C[C@H](OC(=O)[C@H](C)N(C)C(=O)CCS)[C@]1(C)O[C@H]1[C@H](C)[C@@H]1C[C@@](O)(NC(=O)O1)[C@H](OC)/C=C/C=C(\C)C2 [DM1, N2′-deacetyl-N2′-(3-mercapto-1-oxopropyl)-maytansine, reference compound], the IC50 [2] was 21.9 ± 4.1 nM, the IC50 [3] was 35.4 ± 4.2 nM and the IC50 [4] was 68.1 ± 5 nM.
“FITC-NFP1: mPEG2000, hexalysine motif, self-assembling domain KLDLKLDLKLDLK and FITC fluorophore (mPEG2000-KKKKKKKLDLKLDLKLDLK(FITC)-NH2; not fully specified)” was tested, and the “CathB digestion, peptide fragments by HPLC” value [5] was “multiple peptide fragments” and the “morphological change in response to CathB digestion (TEM)” value [5] was “disintegrated and became shorter in length”.
“FITC-NFP2: mPEG2000, self-assembling domain KLDLKLDLKLDLK and FITC fluorophore (mPEG2000-KLDLKLDLKLDLK(FITC)-NH2; not fully specified)” was tested, and the “CathB digestion, peptide fragments by HPLC” value [5] was “only one fragment” and the “morphological change in response to CathB digestion (TEM)” value [5] was “assembled into an interfibril network”.
“NFP1: naked nanofiber of mPEG peptides with hexalysine motif and self-assembling domain KLDLKLDLKLDLK (mPEG2000-KKKKKKKLDLKLDLKLDLK(FITC′)-NH2; not fully specified)” was tested, and the “toxicity of naked nanofibers at high concentration” value ([2]; 10 μM) was “significant cell growth inhibition”, the “toxicity of naked nanofibers” value [2] was “nontoxic” and the “sensitivity to CathB digestion” value ([5]; compared to NFP2) was “increased sensitivity to CathB digestion”. The “toxicity of naked nanofibers at high concentration” value ([3]; 10 μM) was “significant cell growth inhibition” and the “toxicity of naked nanofibers” value [3] was “nontoxic”.
With “NFP2: naked nanofiber of mPEG peptides with self-assembling domain KLDLKLDLKLDLK, no hexalysine motif (mPEG2000-KLDLKLDLKLDLK(FITC′)-NH2; also: mPEG, site not given here)” the “toxicity of naked nanofibers” value [2] was “nontoxic” and the “toxicity of naked nanofibers” value [3] was “nontoxic”.
T-DM1 [reference compound] gave an IC50 [2] of 65.2 ± 4.4 nM and an IC50 [3] of 68.9 ± 3.8 nM.
For “mPEG2000 KLDLKLDLKLDLK-Cy5.5 ({mPEG2000(3)}-KLDLKLDLKLDLK-{Cy5.5}) [Cy5.5-NFP2, optically quenched nanofiber prepared using Cy5.5-conjugated peptide constructs only]”, the “fluorescence change of quenched nanofibers after CathB digestion” value [5] was “only slightly increased”.
For “mPEG2000-KKKKKKKLDLKLDLKLDLK-Cy5.5 (mPEG2000-KKKKKKKLDLKLDLKLDLK-{Cy5.5}) [Cy5.5-NFP1, optically quenched nanofiber prepared using Cy5.5-conjugated peptide constructs only]”, the “fluorescence change of quenched nanofibers after CathB digestion” value [5] was “recovery of the fluorescence signal”.
